Here are results for one molecule from US20230129258A1 (Bicycle, published 2023).

The target in assay [1] is T1, human CD137 extracellular domain (human, UniProt Q07011 24-186, biotinylated where captured on the streptavidin chip).
T1 construct: extracellular domain; Section 17 says only 'Recombinant human CD137 (R&D systems)'; also called CD137 (human); Recombinant human CD137 (R&D systems)
The assay can be described thus: dual binding SPR: BCY11863 captured on immobilized human Nectin-4, soluble human CD137 as analyte, 1:1 fit [ctd) D].

The target in assay [2] is T1, human CD137 extracellular domain. Nature of the assay: SPR, direct binding of BCY11863 to immobilized human CD137, 1:1 fit; avidity from two CD137 bicycles.
Assay [3] addresses T2, rat Nectin-4 extracellular domain (rat, UniProt D3ZET1 31-348, biotinylated where captured on the streptavidin chip).
T2 construct: extracellular domain
T2 sequence: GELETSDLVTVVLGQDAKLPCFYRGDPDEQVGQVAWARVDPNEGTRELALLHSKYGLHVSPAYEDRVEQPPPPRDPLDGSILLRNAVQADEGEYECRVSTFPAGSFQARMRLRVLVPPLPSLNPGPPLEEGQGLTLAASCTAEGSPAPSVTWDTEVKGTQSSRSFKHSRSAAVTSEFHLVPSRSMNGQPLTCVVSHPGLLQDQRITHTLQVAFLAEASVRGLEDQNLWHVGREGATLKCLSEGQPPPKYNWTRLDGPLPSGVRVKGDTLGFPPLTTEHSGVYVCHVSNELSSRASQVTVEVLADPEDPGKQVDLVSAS
Nature of the assay: SPR direct binding, biotinylated Nectin-4 ECD on streptavidin chip, 25° C., n = 6.

The target of assay [4] is T3, human Nectin-4 extracellular domain (human, UniProt Q96NY8 32-349, biotinylated where captured on the streptavidin chip).
T3 construct: extracellular domain; also called Nectin-4 (human); Biotinylated - Nectin-4 extracellular domain
T3 sequence (looked up): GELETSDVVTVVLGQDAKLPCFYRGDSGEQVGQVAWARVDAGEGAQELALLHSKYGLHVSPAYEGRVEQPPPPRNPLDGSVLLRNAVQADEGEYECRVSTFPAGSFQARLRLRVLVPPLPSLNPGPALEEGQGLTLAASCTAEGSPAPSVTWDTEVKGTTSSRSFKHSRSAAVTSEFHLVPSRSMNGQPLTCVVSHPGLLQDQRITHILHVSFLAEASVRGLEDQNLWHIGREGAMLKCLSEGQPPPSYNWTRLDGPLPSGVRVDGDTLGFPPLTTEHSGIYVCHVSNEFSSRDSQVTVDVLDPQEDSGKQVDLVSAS
The assay can be described thus: SPR sandwich assay, BCY11863 captured on biotinylated human CD137, soluble Nectin-4 ECD passed over, n = 4.

Assay [5] deals with T4, mouse Nectin-4 extracellular domain (mouse, UniProt Q8R007 31-347, biotinylated where captured on the streptavidin chip).
T4 construct: extracellular domain
T4 sequence (looked up): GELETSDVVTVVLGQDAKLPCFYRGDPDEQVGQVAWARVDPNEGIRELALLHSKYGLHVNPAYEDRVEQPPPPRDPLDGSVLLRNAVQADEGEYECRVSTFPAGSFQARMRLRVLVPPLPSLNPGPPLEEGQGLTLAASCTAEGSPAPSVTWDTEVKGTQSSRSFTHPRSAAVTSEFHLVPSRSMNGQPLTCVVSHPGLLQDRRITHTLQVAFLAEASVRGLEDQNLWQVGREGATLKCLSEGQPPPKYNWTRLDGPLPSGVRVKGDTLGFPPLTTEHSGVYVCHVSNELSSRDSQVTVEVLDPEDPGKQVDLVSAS
Nature of the assay: SPR sandwich assay, BCY11863 captured on biotinylated human CD137, soluble Nectin-4 ECD passed over, n = 3.

Assay [6] addresses T5, cyno (NHP) Nectin-4 extracellular domain (cyno (NHP), UniProt A0A2K5WES1 32-349, biotinylated where captured on the streptavidin chip).
T5 construct: extracellular domain
T5 sequence: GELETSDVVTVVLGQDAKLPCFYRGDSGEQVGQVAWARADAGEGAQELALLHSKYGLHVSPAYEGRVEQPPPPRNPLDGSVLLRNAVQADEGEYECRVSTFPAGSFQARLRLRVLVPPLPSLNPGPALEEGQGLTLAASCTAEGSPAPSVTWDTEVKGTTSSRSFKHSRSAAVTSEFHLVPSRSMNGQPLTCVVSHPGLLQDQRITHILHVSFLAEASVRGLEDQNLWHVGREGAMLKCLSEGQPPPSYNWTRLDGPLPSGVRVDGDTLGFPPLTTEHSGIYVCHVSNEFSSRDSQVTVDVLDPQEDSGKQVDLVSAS
The assay is described as above.

Assay [7] has as its target T2, rat Nectin-4 extracellular domain. Described as above.
For assay [8], the target named is T6, Nectin-like-1 (3678-S4-050, R&D Systems) (UniProt Q8N126 25-330, biotinylated).
T6 sequence (looked up): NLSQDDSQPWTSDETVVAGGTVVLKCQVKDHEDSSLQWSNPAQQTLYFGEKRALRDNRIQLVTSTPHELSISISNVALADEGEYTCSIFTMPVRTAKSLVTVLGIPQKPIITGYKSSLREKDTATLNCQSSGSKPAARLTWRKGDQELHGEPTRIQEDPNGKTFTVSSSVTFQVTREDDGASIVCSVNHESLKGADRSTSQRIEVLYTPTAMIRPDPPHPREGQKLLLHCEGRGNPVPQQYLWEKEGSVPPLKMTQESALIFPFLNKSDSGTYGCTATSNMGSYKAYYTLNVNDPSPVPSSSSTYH
Nature of the assay: SPR, biotinylated target on streptavidin surface. In general terms: SPR reads the build-up and loss of mass on a sensor chip optically.

Assay [9] addresses T7, cyno (NHP) CD137 extracellular domain (cyno (NHP), UniProt A9YYE7 24-186).
T7 construct: extracellular domain
The assay can be described thus: SPR dual binding, BCY11863 captured on biotinylated human Nectin-4, soluble CD137 ECD passed over, n = 3.

Assay [10] concerns the target CD137 on Jurkat reporter cells (Promega kit CS196005) (UniProt Q07011 24-255, limits assumed). The assay can be described thus: cell-based or functional assay.
The target of assay [11] is T1, human CD137 extracellular domain. The assay can be described thus: SPR, direct binding of BCY11863 to immobilized human CD137, 1:1 fit; the text calls the off rate very slow (avidity from two CD137 bicycles).

Starred links: 1 amine or outer side, 2 acyl side, 3 side chain; linkers in the order of their positions; H or OH if unused. Positions of bridges follow the written chain, without caps; N, C: chain ends. Non-standard residues stand in square brackets, D forms with d. Chains are numbered I, II in the order given. No end group written: not given here. dLys(PYA) = D-lysine Nε-acylated with 4-pentynoic acid, clicked (triazole) to the linker azide, O=C(CCc1cn([*:3])nn1)NCCCC[C@@H](N[*:1])C(=O)[*:2]; TATA = O=C(CC[*:1])N1CN(C(=O)CC[*:2])CN(C(=O)CC[*:3])C1; 1Nal = N[C@@H](Cc1cccc2ccccc12)C(=O)O; Hyp = O=C(O)[C@@H]1C[C@@H](O)CN1; hArg = N=C(N)NCCCC[C@H](N)C(=O)O; tBuAla = CC(C)(C)C[C@H](N)C(=O)O; Nle = CCCC[C@H](N)C(=O)O

T1 sequence (Q07011 24-186): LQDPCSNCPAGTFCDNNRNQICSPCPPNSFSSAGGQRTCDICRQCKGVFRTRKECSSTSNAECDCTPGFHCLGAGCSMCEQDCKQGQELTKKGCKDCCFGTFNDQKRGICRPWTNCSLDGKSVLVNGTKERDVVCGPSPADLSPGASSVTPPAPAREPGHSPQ
Sequence of CD137 on Jurkat reporter cells (Promega kit CS196005) (Q07011 24-255 limits assumed): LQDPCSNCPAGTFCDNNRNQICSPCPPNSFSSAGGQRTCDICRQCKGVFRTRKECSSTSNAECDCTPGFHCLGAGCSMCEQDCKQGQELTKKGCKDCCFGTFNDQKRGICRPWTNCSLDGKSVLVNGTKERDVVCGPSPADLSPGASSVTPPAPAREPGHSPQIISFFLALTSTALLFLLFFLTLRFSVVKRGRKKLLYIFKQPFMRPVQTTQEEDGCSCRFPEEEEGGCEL
T7 sequence (A9YYE7 entry or part of it): as the sequence (Q07011 24-186) above, with P4L, N19S, R50K, T66I, P67S, F69Y, G75E, V149A counted along it

B1: heterotandem bicyclic peptide complex BCY11863 (peptide)
peptide 1: CP[1Nal][dD]CM[hArg]DWSTP[Hyp]WC
peptide 2: Ac-C[tBuAla]PE[dLys(PYA)]PYCFADPY[Nle]CA
modifications: linker I:1-I:5-I:15, II:1-II:8-II:15 via TATA; not fully specified (bridges); also: 1:2 complex: BCY8116 + 2x BCY8928
notes: also called Nectin-4/CD137 heterotandem
On to B1, for which the Kd (commonly the constant that tells how readily two partners part at equilibrium) stood at 6.26 nM in assay [1]; 15 nM in assay [3]; 12 nM in assay [4]; 6.7 nM in assay [5]; 28 nM in [6]; 25 nM in assay [7]. This molecule also displayed a Kd in [9] of 18 nM. Besides, the koff (as a rule, the first-order rate constant of dissociation) was determined as 0.00275 s⁻¹ in assay [1] and 0.00035 s⁻¹ in [11]. The kon (commonly a measure of how fast the partners come together) in assay [1] was 439000 M⁻¹ s⁻¹; in [2], 952000 M⁻¹ s⁻¹. The binding result in [8] is “no binding (tested: 5000 nM)”. Further, the “Fold improvement in EC50 over BCY10000 on same plate, NCI-H292” value in assay [10] was found to be 4.56 fold. Besides, the “Fold improvement in Emax over BCY10000 on same plate, NCI-H292” value in assay [10] stood at 2.16 fold.
